The values below come from patent publication US20050214207A1 (published 2005).

Test [1] concerns the target T1, TR7-Fc fusion protein (Ala-Asp-Pro fused to E52-G184 of TR7, SEQ ID NO:3, fused to the Fc region) (human, UniProt O14763 52-184).
T1 construct: Expressed in baculovirus with the GP signal peptide; it is read as TR7; also called TR7-Fc receptor; TRAILR2; not shown: Fc region
Briefly: SPR (BIAcore 2000), TR7-Fc amine-coupled to CM5 chip, antibody as analyte, 1:1 Langmuir model, double-reference subtraction, mean±STD of three experiments. The protocol: (§1) TR7-Fc and TR2-Fc were immobilized on individual flow cells of a BIAcore CM5 sensor chip (BIAcore, Cat# BR-1000-14). Amine coupling (BIAcore, Cat# BR-1000-50) was used to covalently bind each receptor to the dextran matrix on the sensor chip. The optimal pH for this coupling was analyzed using preconcentration experiments ranging from pH 4-7 and was determined to be pH 4.0 based on the slope of the binding. The actual coupling was performed using the manual injection mode. A target level of 200 relative units (RU) was set as the goal for both flow cells. A response of 1000 RU correlates to a change in surface concentration of about 1 ng/mm² for proteins. The molecular weight of the TR7 and TR2 fusion proteins was nearly identical. The concentration of both receptors for immobilization was 5 μg/ml in 10 mM acetate, pH 4.0 (BIAcore, Cat# BR-1003-49). The entire experiment was performed at a flow rate of 5 μL/min. Contact time for the N-ethyl-N′-(3-dimethylaminoprolpyl)carbodiimide hydrochloride/Ethanolamine hydrochloride-NaOH, pH 8.5 (EDC/NHS) injection was 3 minutes. […]
(§2) Analysis of CM005G08 kinetics was performed using the BIAcore 2000 instrument with the 2000 control software, version 3.1.1. […] The off rate of CM005G08 was determined by washing the complex in the presence of HBS-EP buffer for 10 minutes. […]
(§3) The binding data were analyzed using the BIAevaluation software, version 3.1. […]

The target in test [2] is T1, TR7-Fc fusion protein (Ala-Asp-Pro …). In words: SPR (BIAcore 2000), TR7-Fc amine-coupled to CM5 chip, antibody as analyte, separate fitting of the dissociation phase. The protocol:
as §1, §2, §3
In general terms: Surface plasmon resonance follows binding to a sensor surface in real time, without labels.

Test [3] has the same target. In words: competition ELISA: inhibition of biotinylated TRAIL binding to TR7-Fc captured on anti-human Fc. The protocol: Goat anti-human Fc is diluted to 0.1 micrograms/ml in coating buffer. An Immulon 4 microplate is coated with 100 microliters per well of the Goat anti-human Fc solution and incubated overnight at 4° C. The coating solution is decanted from the plate, and blocking solution is dispensed at 200 microliters per well. The plate is incubated at room temperature for 1 hour. After the 1 hour incubation period, the blocking solution is decanted from the plate and 1 microgram/mL of TR7-Fc is dispensed at 100 microliters/well and incubated for 2 hours at room temperature. After the incubation, the plate is washed five times manually using a Wheaton manifold.
Antibodies corresponding to scFvs of the present invention are (previously) prepared in a low binding dilution plate using diluent. The antibodies are prepared in duplicate and are diluted from the stock concentration with 2.5 fold dilutions for the 7 subsequent wells. If a purified form of the antibody is available, the starting concentration is 5 micrograms/mL. The positive control (TR7-Fc) is diluted from 5 micrograms/mL. 100 microliters is transferred into the ELISA plate and pre-incubated for 30 minutes at room temperature. […]
After the one-hour incubation, the plate is decanted and washed with PBST five times and blotted. […] The plate is immediately read at 450 nm using the spectrometer from Molecular Devices.

The term Kd denotes the equilibrium constant for the complex coming apart. The low end stands for a tighter complex, the high end for a looser complex. A word on the koff: it is the first-order rate constant of dissociation. Read a low koff as a long-lived complex. A word on the IC50: it is the concentration that inhibits the measured activity by half.

“And” between values parts separate entries of the source, which are not always exact repeats. Identical values can stand only once.

B1: CM005G08 whole IgG1 antibody comprising the VH and VL domains of the CM005G08 scFv (antibody, V domains shown)
VH: EVQLVQSGGGVERPGGSLRLSCAASGFTFDDYGMSWVRQAPGKGLEWVSGINWNGGSTGYADSVKGRVTISRDNAKNSLYLQMNSLRAEDTAVYYCAKILGAGRGWYFDLWGKGTTVTVSS
VL: SSELTQDPAVSVALGQTVRITCQGDSLRSYYASWYQQKPGQAPVLVIYGKNNRPSGIPDRFSGSSSGNTASLTITGAQAEDEADYYCNSRDSSGNHVVFGGGTKLTVLG
notes: Two lots were tested; also called CM05G08; IgG1 format of CM005G08
As for B1, the Kd in test [1] is 0.25 nM and 0.33 nM. The koff in test [2] was 0.00266 s⁻¹ and 0.00268 s⁻¹. The IC50 in test [3] was 5.3 nM and 6.89 nM.
